In the supplement of paper PMC10126150:
± gives the standard deviation of the averaged measurements.

system: ATP; test: switch fluorescence ratio, 500 uM ATP over buffer (Cy3 cluster intensity, sum of 5 cycles each) (fold (ratio)); higher = stronger signal-on switching upon ATP binding; sequences stand for … in TCGTCGGCAGCGTCAGATGTGTATAAGAGACAGTTTTTTTTTTTTTTTTTTTTTTTTT…TC; conditions: aptamer strand: ATP DNA aptamer (quencher-CACCTGGGGGAGTATTGCGGAGGAAGG + anchor), 100 nM annealed; ATP concentration: 500 uM
Method in brief: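 The quencher-labelled ATP aptamer, at 100 nM, was annealed to Cy3-labelled switching-strand clusters on a modified Illumina MiSeq flow-cell. The clusters were imaged in selection buffer, then after 15 min with 500 uM ATP at 22 °C, and this buffer/ATP cycle ran five times with NaOH stripping and re-annealing between runs. Per-cluster fluorescence ratios, summed target-cycle over summed buffer-cycle Cy3 intensity, were averaged per switch-domain sequence. Clusters outside 100-1000 RFU were excluded.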
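Also: ATP exposure 15 min at 22 °C before imaging.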

Sequence	switch fluorescence ratio
GGTGGTTGTA	0.919 ± 0.043
GGTGTAACAG	0.991 ± 0.012
GGTGTACCGG	1.004 ± 0.0092
GGTGTAGGAC	1.03 ± 0.012
GGTGTCTGCG	1.01 ± 0.013
GGTGTGATTT	1 ± 0.025
GGTGTGCATC	1 ± 0.018
GGTGTGGCCG	1.02 ± 0.062
GGTGTGGCGC	0.955 ± 0.0063
GGTGTGGGAT	1.01 ± 0.057
GGTGTGGTCA	0.977 ± 0.035
GGTGTGTATC	1.01 ± 0.02
GGTGTGTGGT	1.002 ± 0.0029
GGTGTTACGT	0.971 ± 0.017
GGTGTTAGGT	0.9925 ± 0.0029
GGTGTTCAGC	0.981 ± 0.04
GGTGTTCAGG	1.042 ± 0.0083
GGTGTTGGGG	1.0211 ± 3.7e-05
GGTGTTGGTT	1.008 ± 0.0093
GGTGTTGTG	0.974 ± 0.081
GGTGTTGTTG	1.017 ± 0.0023
GGTTAAACAA	1.01 ± 0.016
GGTTAACTTA	0.979 ± 0.042
GGTTAAGCTT	1.007 ± 0.0078
GGTTAAGGAT	0.9884 ± 0.0023

Sequence	switch fluorescence ratio
GGTTAAGGCC	1.033 ± 0.007
GGTTAAGGGA	0.982 ± 0.024
GGTTAAGGGG	1.05 ± 0.13
GGTTAAGGTC	1 ± 0.029
GGTTAAGTTT	0.969 ± 0.025
GGTTAATGGA	0.9833 ± 0.0035
GGTTAATGGC	1.05 ± 0.039
GGTTACAGTT	1.036 ± 0.01
GGTTACATTG	0.993 ± 0.019
GGTTACGGC	1.07 ± 0.17
GGTTAGCGG	0.9599 ± 0.0026
GGTTAGGGAC	1.04 ± 0.04
GGTTAGGGAG	1.002 ± 0.0089
GGTTAGGGGG	1 ± 0.052
GGTTAGTACT	0.999 ± 0.017
GGTTATAGGG	0.9802 ± 0.008
GGTTATAGTT	1.01 ± 0.011
GGTTATCGGC	1.01 ± 0.017
GGTTATGAGT	0.99 ± 0.017
GGTTATTGGA	0.995 ± 0.058
GGTTATTTTT	1.01 ± 0.036
GGTTCAAAAC	0.997 ± 0.059
GGTTCAACGG	0.982 ± 0.014
GGTTCAATCT	0.9815 ± 0.0012
GGTTCACGGG	0.983 ± 0.015

Sequence	switch fluorescence ratio
GGTTCACTTT	1.02 ± 0.033
GGTTCAGGGG	2.26 ± 1.8
GGTTCCTATG	0.9909 ± 0.0079
GGTTCTGAGC	0.986 ± 0.02
GGTTCTGGGT	1 ± 0.02
GGTTCTGTCC	1.03 ± 0.021
GGTTCTTGAA	0.994 ± 0.019
GGTTCTTGG	0.995 ± 0.062
GGTTCTTTTC	0.996 ± 0.037
GGTTGAAATG	0.939 ± 0.072
GGTTGAGCGT	1.01 ± 0.047
GGTTGAGCTC	0.973 ± 0.063
GGTTGAGGAC	1.01 ± 0.057
GGTTGAGGG	0.997 ± 0.001
GGTTGAGGGA	0.979 ± 0.016
GGTTGATAGA	1.01 ± 0.028
GGTTGATGGG	0.999 ± 0.038
GGTTGCATCA	0.994 ± 0.032
GGTTGCATCG	0.986 ± 0.012
GGTTGCGGGT	0.9874 ± 0.0056
GGTTGCGTCG	1.01 ± 0.014
GGTTGGACCA	0.9602 ± 0.0032
GGTTGGATTA	0.9787 ± 0.00083
GGTTGGCCGC	1.02 ± 0.032
GGTTGGGGGG	1 ± 0.036

Sequence	switch fluorescence ratio
GGTTGGGTTA	1.033 ± 0.0083
GGTTGGTGCA	1.02 ± 0.013
GGTTGTAGGC	1.02 ± 0.017
GGTTGTGAAG	0.994 ± 0.043
GGTTGTGCGA	0.98322 ± 0.00037
GGTTGTTAGG	0.9796 ± 0.0055
GGTTTAAAAT	0.9581 ± 0.0094
GGTTTAAGTG	0.979 ± 0.052
GGTTTAATCG	1.01 ± 0.046
GGTTTAATGG	1.01 ± 0.018
GGTTTAATTA	0.972 ± 0.03
GGTTTAGCG	1.014 ± 0.0025
GGTTTAGCTC	0.999 ± 0.038
GGTTTAGGAA	1 ± 0.028
GGTTTAGGAG	1.01 ± 0.062
GGTTTAGGCT	1.08 ± 0.12
GGTTTATGAC	1.13 ± 0.27
GGTTTCATGG	0.998 ± 0.012
GGTTTCGTTT	1.002 ± 0.0063
GGTTTGAAAA	1.01 ± 0.032
GGTTTGCGCT	1.004 ± 0.0076
GGTTTGGGAG	1 ± 0.036
GGTTTGGGGG	0.997 ± 0.023
GGTTTGGTAA	1.014 ± 0.0099
GGTTTGTGTT	0.974 ± 0.017
